The values below come from paper PMC3180432.

The target in one experiment is B7.1-Fc (mouse) (UniProt Q00609). The experiment can be described thus: SPR; BIAcore 2000, CM5 chip, ligand immobilised by amine coupling, analyte protein injected at different molarities at 10 uL/min, HBS (0.01 M Hepes pH 7.4, 0.15 M NaCl, 0.005% P20), 25°C. On the technique in general: SPR reads the build-up and loss of mass on a sensor chip optically.
A further experiment has as its target B7-H1-Fc (mouse) (UniProt Q9EP73). The experiment is described as above.

Broadly, the Kd is a measure of binding affinity in units of concentration. As to “B7-H1-Fc (from UniProt Q9EP73 19-239) (Fc fusion)”, the Kd in the experiment with B7.1-Fc (mouse) stood at 1.07 µM.
As for “PD-1-Fc (from UniProt Q02242 25-169) (Fc fusion)”, the dissociation constant (Kd) with B7-H1-Fc (mouse) turned out to be 0.82 µM.
Same read-out and setting: the value for “B7.1-Fc (from UniProt Q00609 38-246) (Fc fusion)” was 0.38 µM.
